B1: 3-isopropylmalate dehydrogenase, P50455 (parent)
chain: MGFTVALIQGDGIGPEIVSKSKRILAKINELYSLPIEYIEVEAGDRALARYGEALPKDSLKIIDKADIILKGPVGESAADVVVKLRQIYDMYANIRPAKSIPGIDTKYGNVDILIVRENTEDLYKGFEHIVSDGVAVGMKIITRFASERIAKVGLNFALRRRKKVTCVHKANVMRITDGLFAEACRSVLKGKVEYSEMYVDAAAANLVRNPQMFDVIVTENVYGDILSDEASQIAGSLGIAPSANIGDKKALFEPVHGAAFDIAGKNIGNPTAFLLSVSMMYERMYELSNDDRYIKASRALENAIYLVYKERKALTPDVGGNATTDDLINEIYNKLG

Variants of: B1
Conditions: Sulfurisphaera tokodaii (strain DSM 16993 / JCM 10545 / NBRC 100140 / 7); pH 7; Thermal; CD; Potassium phosphate 20 mM; structure 1WPW; whole UniProt chain shown

Row | Variant | Tm | change of melting temperature, mutant - wild type (higher = more stable)
1 | MGFTVALIQGDGIGPEIVSKSKRILAKINELYSLPIEYIEVEAGDRALARYGEALPKDSLKIIDKADIILKGPVGESAADVVVKLRQIYDLYANLRPAKSIPGIDTKYGNVDILIVRENTEDLYKGFEHIVSDGVAVGMKIITRFASERIAKVGLNFALRRRKKVTCVHKANVMRITDGLFAEACRSVLKGKVEYSEMYVDAAAANLVRNPQMFDVIVTENVYGDILSDEASQIAGSLGIAPSANIGDKKALFEPVHGAAFDIAGKNIGNPTAFLLSVSMMYERMYELSNDDRYIKASRALENAIYLVYKERKALTPDVGGNATTDDLINEIYNKLG [M91L I95L] | 99.2 °C | 3.2 °C
2 | MGFTVALIQGDGIGPEIVSKSKRILAKINELYSLPIEYIEVEAGDRALARYGEALPKDSLKIIDKADIILKGPVGESAADVVVKLRQIYDLYANLRPAKSIPGIDTKYGNVDILIVRENTEDLYKGFEHIVSDGVAVGMKIITRFASERIARVALNFALRRRKKVTCVHKANVMRITDGLFAEACRSVLKGKVEYSEMYVDAAAANLVRNPQMFDVIVTENVYGDILSDEASQIAGSLGIAPSANIGDKKALFEPVHGSAPDIAGKNIGNPTAFLLSVSMMLERMYELSNDDRYIKASRALENAIYLVYKERKALTPDVGGNATTDDLINEIYNKLG [M91L I95L K152R G154A A259S F261P Y282L] | 96.4 °C | 0.4 °C
3 | MGFTVALIQGDGIGPEIVSKSKRILAKINELYSLPIEYIEVEAGDRALARYGEALPKDSLKIIDKADIILKGPVGESAADVVVKLRQIYDMYANIRPAKSIPGIDTKYGNVDILIVRENTEDLYKGFEHIVSDGVAVGMKIITRFASERIARVGLNFALRRRKKVTCVHKANVMRITDGLFAEACRSVLKGKVEYSEMYVDAAAANLVRNPQMFDVIVTENVYGDILSDEASQIAGSLGIAPSANIGDKKALFEPVHGAAFDIAGKNIGNPTAFLLSVSMMYERMYELSNDDRYIKASRALENAIYLVYKERKALTPDVGGNATTDDLINEIYNKLG [K152R] | 95.6 °C | -0.4 °C
4 | MGFTVALIQGDGIGPEIVSKSKRILAKINELYSLPIEYIEVEAGDRALARYGEALPKDSLKIIDKADIILKGPVGESAADVVVKLRQIYDMYANIRPAKSIPGIDTKYGNVDILIVRENTEDLYKGFEHIVSDGVAVGMKIITRFASERIARVALNFALRRRKKVTCVHKANVMRITDGLFAEACRSVLKGKVEYSEMYVDAAAANLVRNPQMFDVIVTENVYGDILSDEASQIAGSLGIAPSANIGDKKALFEPVHGAAFDIAGKNIGNPTAFLLSVSMMYERMYELSNDDRYIKASRALENAIYLVYKERKALTPDVGGNATTDDLINEIYNKLG [K152R G154A] | 97.2 °C | 1.2 °C
5 | MGFTVALIQGDGIGPEIVSKSKRILAKINELYSLPIEYIEVEAGDRALARYGEALPKDSLKIIDKADIILKGPVGESAADVVVKLRQIYDMYANIRPAKSIPGIDTKYGNVDILIVRENTEDLYKGFEHIVSDGVAVGMKIITRFASERIAKVALNFALRRRKKVTCVHKANVMRITDGLFAEACRSVLKGKVEYSEMYVDAAAANLVRNPQMFDVIVTENVYGDILSDEASQIAGSLGIAPSANIGDKKALFEPVHGAAFDIAGKNIGNPTAFLLSVSMMYERMYELSNDDRYIKASRALENAIYLVYKERKALTPDVGGNATTDDLINEIYNKLG [G154A] | 97.9 °C | 1.9 °C
6 | MGFTVALIQGDGIGPEIVSKSKRILAKINELYSLPIEYIEVEAGDRALARYGEALPKDSLKIIDKADIILKGPVGESAADVVVKLRQIYDMYANIRPAKSIPGIDTKYGNVDILIVRENTEDLYKGFEHIVSDGVAVGMKIITRFASERIAKVGLNFALRRRKKVTCVHKANVMRITDGLFAEACRSVLKGKVEYSEMYVDAAAANLVRNPQMFDVIVTENVYGDILSDEASQIAGSLGIAPSANIGDKKALFEPVHGSAPDIAGKNIGNPTAFLLSVSMMYERMYELSNDDRYIKASRALENAIYLVYKERKALTPDVGGNATTDDLINEIYNKLG [A259S F261P] | 97.1 °C | 1.1 °C
7 | MGFTVALIQGDGIGPEIVSKSKRILAKINELYSLPIEYIEVEAGDRALARYGEALPKDSLKIIDKADIILKGPVGESAADVVVKLRQIYDMYANIRPAKSIPGIDTKYGNVDILIVRENTEDLYKGFEHIVSDGVAVGMKIITRFASERIAKVGLNFALRRRKKVTCVHKANVMRITDGLFAEACRSVLKGKVEYSEMYVDAAAANLVRNPQMFDVIVTENVYGDILSDEASQIAGSLGIAPSANIGDKKALFEPVHGAAFDIAGKNIGNPTAFLLSVSMMLERMYELSNDDRYIKASRALENAIYLVYKERKALTPDVGGNATTDDLINEIYNKLG [Y282L] | 94.7 °C | -1.3 °C

Reference: FireProtDB (doi:10.1093/oxfordjournals.jbchem.a002919)
